Test results published in patent publication US20050026234A1.

Key:
[1] = target: modified kemptide LRRASLP of C4kY2.1, phosphorylated by PKA at serine 475; test: cell-based or functional assay
[2] = target: PKC substrate sequence … of CKAR, phosphorylated by PKC at the phosphoacceptor threonine; test: cell-based or functional assay

Row | Substance | FRET efficiency of phosphorylated C4kY2.1, calculated after trypsin treatment (nonphosphorylated: 30%) [1] | change in the emission ratio 535 nm/480 nm in cells pretreated with 10 µM H-89, then 1 mM dbcAMP [1] | emission ratio of 526 nm and 476 nm of the purified PKA-phosphorylated chimera before dephosphorylation by PP1 (1.14 after) [1] | increase in the 535 nm/480 nm ratio in COS-7 cells treated with FsK and with dbcAMP [1] | ratio of the emission at 526 nm and 476 nm of purified C4kY2.1 after phosphorylation by PKA catalytic subunit (1.09 before) [1] | absolute amount of FRET of purified CKAR after phosphorylation by PKC βII (38% before), estimated from emission spectra [2]
1 | 14-3-3τ (1-232), the phosphoaminoacid binding domain of the chimeric PKA reporter protein C4kY2.1 | 20% | 46% | 1.39 | 5% | 1.42 | –
2 | FHA2 phosphothreonine binding domain from the yeast checkpoint protein rad53p, as the binding domain of CKAR (from UniProt P22216 601-681) | – | – | – | – | – | 34%
